From patent US20240400630A1 come the findings set out here.

For assay [1], the target named is IL-2/IL-15 receptor on IL-2/IL-15-responsive HEK293 cells (human CD25 (IL-2Rα), CD122 (IL-2Rβ), CD132 (IL-2Rγ)) (human) (UniProt P01589). The assay can be described thus: cell-based or functional assay.
Assay [2] concerns the target IL-15R on human PBMCs (NK cells, CD8+ T cells, CD4+ T cells) (human). Description: cell-based or functional assay.

Sequence of IL-2/IL-15 receptor on IL-2/IL-15-responsive HEK293 cells (human CD25 (IL-2Rα), CD122 (IL-2Rβ), CD132 (IL-2Rγ)) (human) (P01589 22-272, chain 1 of 3): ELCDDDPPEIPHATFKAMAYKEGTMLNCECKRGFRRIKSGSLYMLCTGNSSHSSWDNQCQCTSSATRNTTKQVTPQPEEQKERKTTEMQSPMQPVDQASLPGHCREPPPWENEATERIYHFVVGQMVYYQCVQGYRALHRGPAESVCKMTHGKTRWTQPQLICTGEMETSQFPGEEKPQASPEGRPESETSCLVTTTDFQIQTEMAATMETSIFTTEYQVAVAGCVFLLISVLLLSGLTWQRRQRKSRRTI
Sequence of IL-2/IL-15 receptor on IL-2/IL-15-responsive HEK293 cells (human CD25 (IL-2Rα), CD122 (IL-2Rβ), CD132 (IL-2Rγ)) (human) (P14784 27-551, chain 2 of 3, further chain): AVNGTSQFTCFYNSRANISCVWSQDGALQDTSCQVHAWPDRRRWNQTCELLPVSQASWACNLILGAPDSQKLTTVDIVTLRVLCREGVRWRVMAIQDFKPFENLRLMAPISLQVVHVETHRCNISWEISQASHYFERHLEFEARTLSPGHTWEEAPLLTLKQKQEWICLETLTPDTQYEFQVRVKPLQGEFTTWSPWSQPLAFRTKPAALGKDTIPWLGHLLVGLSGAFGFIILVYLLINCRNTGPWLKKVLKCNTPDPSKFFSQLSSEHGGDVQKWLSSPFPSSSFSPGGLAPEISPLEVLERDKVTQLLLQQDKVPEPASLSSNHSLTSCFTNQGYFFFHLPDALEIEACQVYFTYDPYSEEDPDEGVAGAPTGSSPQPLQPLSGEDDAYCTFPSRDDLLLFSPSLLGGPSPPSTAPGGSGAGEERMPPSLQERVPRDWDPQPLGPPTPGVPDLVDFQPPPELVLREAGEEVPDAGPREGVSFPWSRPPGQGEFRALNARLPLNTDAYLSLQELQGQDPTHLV
Sequence of IL-2/IL-15 receptor on IL-2/IL-15-responsive HEK293 cells (human CD25 (IL-2Rα), CD122 (IL-2Rβ), CD132 (IL-2Rγ)) (human) (P31785 23-369, chain 3 of 3, further chain): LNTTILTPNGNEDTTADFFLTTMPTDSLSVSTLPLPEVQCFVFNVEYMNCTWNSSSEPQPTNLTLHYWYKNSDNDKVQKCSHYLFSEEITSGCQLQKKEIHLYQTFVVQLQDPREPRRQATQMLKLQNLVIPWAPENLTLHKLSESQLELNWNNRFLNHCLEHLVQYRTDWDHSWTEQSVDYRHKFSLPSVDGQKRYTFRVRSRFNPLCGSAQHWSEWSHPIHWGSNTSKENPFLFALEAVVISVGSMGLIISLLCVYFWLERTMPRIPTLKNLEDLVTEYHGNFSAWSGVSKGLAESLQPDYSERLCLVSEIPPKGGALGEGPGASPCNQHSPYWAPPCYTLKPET

With “PeproTech IL-15 (Recombinant human IL-15, available from PeproTech, Catalog #200-15) (from UniProt P40933 49-162) (ligand)”, in assay [1], the EC50: HEK-Blue Reporter Assay amounted to 1.48 pM and the EC50: HEK-Blue Reporter Assay (average, n>3) came to 1.46 pM. In assay [2], this substance yielded an EC50: Human PBMC Proliferation Ki67, CD4 of 121 pM; an EC50: Human PBMC Proliferation Ki67, CD8 of 221 pM; an EC50: Human PBMC Proliferation Ki67, NK Cells of 4 pM; an EC50: Human PBMC STAT5 Phosphorylation, CD4 of 6.97 pM. In assay [2], the EC50: Human PBMC STAT5 Phosphorylation, CD8 came out at 6.4 pM and the EC50: Human PBMC STAT5 Phosphorylation, NK cells came to 1.79 pM.
